Experiment [1] concerns the target T1, E. coli Trigger Factor (TF), full length (E. coli, UniProt P0A850 1-432).
T1 sequence (looked up): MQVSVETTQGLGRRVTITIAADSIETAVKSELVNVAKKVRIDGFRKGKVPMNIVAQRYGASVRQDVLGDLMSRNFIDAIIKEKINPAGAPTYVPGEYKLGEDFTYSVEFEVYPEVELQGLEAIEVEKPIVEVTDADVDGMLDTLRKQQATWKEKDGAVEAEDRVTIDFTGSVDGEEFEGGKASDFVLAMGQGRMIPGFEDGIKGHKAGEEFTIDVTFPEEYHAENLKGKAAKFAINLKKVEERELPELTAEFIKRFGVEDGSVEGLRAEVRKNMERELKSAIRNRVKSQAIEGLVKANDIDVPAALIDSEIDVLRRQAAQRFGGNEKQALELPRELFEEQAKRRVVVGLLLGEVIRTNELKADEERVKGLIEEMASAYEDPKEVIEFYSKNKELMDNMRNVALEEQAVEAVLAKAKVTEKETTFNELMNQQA
Kind of experiment: ITC. Background: Isothermal titration calorimetry measures the heat released or taken up as one component is titrated into another.

The target of experiment [2] is T1, E. coli Trigger Factor (TF), full length. Kind of experiment: NMR titration.
Experiment [3] has the same target. Briefly: ITC + NMR titration.

The text below walks through data of PMC4070327 (Science (New York, N.Y.), 2014).

Broadly, the Kd is a measure of binding affinity in units of concentration. For orientation: stoichiometry N means the number of molecules, sites or subunits per partner or assembly.

B1: PhoA^a-c (PhoA fragment with TF-binding sites a to c) (domain or fragment, E. coli, UniProt P00634 1-150, looked up)
chain: MKQSTIALALLPLLFTPVTKARTPEMPVLENRAAQGDITAPGGARRLTGDQTAALRDSLSDKPAKNIILLIGDGMGDSEITAARNYAEGAGGFFKGIDALPLTGQYTHYALNKKTGKPDYVTDSAASATAWSTGVKTYNGALGVDIHEKD
As to B1, in experiment [1], the Kd was ~2 µM. In experiment [2], the “stoichiometry N” value is 1 TF per PhoA^a-c.

B2: PhoA site b (independent fragment) (domain or fragment)
chain: TPEMPVLENRAAQGDITAPGGARRLTGDQTAALRDSLSDKPAKNIILLIGDGMGDS
Turning to B2, the Kd in experiment [3] is ~200 µM.

B3: PhoA^f-g (PhoA fragment with TF-binding sites f and g) (domain or fragment, E. coli)
chain: QIGETVDLDEAVQRALEFAKKEGNTLVIVTADHAHASQIVAPDTKAPGLTQALNTKDGAVMVMSYGNSEEDSQEHTGSQLRIAAYGPHAANVVGLTDQTDLFYTMKAALGLK
For the molecule B3, the Kd in experiment [1] is ~14 µM.

B4: PhoA^d-e (PhoA fragment with TF-binding sites d and e) (domain or fragment, E. coli)
chain: ARADVTLGGGAKTFAETATAGEWQGKTLREQAQARGYQLVSDAASLNSVTEANQQKPLLGLFADGNMPVRWLGPKATYHGNIDKPAVTCTP
As for B4, the dissociation constant Kd in experiment [1] was ~4 µM.
